Experimental findings from patent WO2023191079A1 (dated 2023) are described below.

The experiment has as its target T1, SpyCatcher-GOx (fusion protein with SpyCatcher and glucose oxidase in this order from the N-terminus).
T1 construct: also called SpyCatcher-fused glucose oxidase; SpyCatcher fusion GOx
Kind of experiment: 5 uM each mixed, overnight at 4 C, SDS-PAGE.

B1: scFv-ST (anti-CRP scFv antibody with SpyTag added) (scFv)
scFv: HMASQVQLQQSGAELVKPGASVKLSCTASGFNIKDYYMHWVKQRTEQGLEWIGRIDPEDGETKYAPKFQGKATITADTSSNTAYLQLSSLTSEDTAVYYCARGYYGSEAMDYWGQGTSLTVSSGGGGSGGGGSGGGGSTGSIVMTQSHKFMSTSVGDRVSITCKASQDVNTAVAWYQQKPGQSPKLLIYWASTRHTGVPDRFTGSGFGTDYTLTISSVQAEDLALYYCQQHYSTPWTFGGGTKLEIKRADAAPKLAAAGSGAHIVMVDAYKPTKAEQKLISEEDLNLGGGMRGSHHHHHH
As for B1, the binding result is on record as “binds”.
